# Reference: article PMC7329908
# Key:
# [1] = target: C. elegans Hsp90 (HSP-90) (C. elegans) (UniProt Q18688); assay: AUC; sedimentation velocity with fluorescence detection; 600 nM ATTO 488-labelled GRLBDm, 3 μM unlabelled chaperones and cofactors, 2 mM ATPγS; 20 mM HEPES, 20 mM KCl, 5 mM MgCl2, 50 μM dexamethasone, pH 7.5; 42,000 rpm, 20 °C
# [2] = target: C. elegans Hsp90 (HSP-90) (C. elegans) (UniProt Q18688); assay: AUC; sedimentation velocity with fluorescence detection; 600 nM ATTO 488-labelled GRLBDm, 3 μM unlabelled chaperones and cofactors, no nucleotide; 20 mM HEPES, 20 mM KCl, 5 mM MgCl2, 50 μM dexamethasone, pH 7.5; 42,000 rpm, 20 °C
substance,measurement,setting,value
"ATTO 488-labelled GRLBDm, the ligand-binding domain of the human glucocorticoid receptor stabilized by mutagenesis (F602S/A605V/V702A/E705G/M752T) (domain or fragment)",fraction of GRLBDm bound,[1],0.22
same,fraction of GRLBDm bound (with Cep23/DAF-41 added),[1],0.28
same,fraction of GRLBDm bound,[2],0.49
